# In patent publication US20120164159A1 (OPSONA THERAPEUTICS, published 2012):
# B1: OPN-305 fully humanised anti-Toll-like Receptor 2 monoclonal antibody (antibody, human IgG4 S228P, kappa, V domains shown)
# VH: QVQLVQSGSELKKPGASVKLSCKASGFTFTTYGINWVRQAPGQGLEWIGWIYPRDGSTNFNENFKDRATITVDTSASTAYMELSSLRSEDTAVYFCARLTGGTFLDYWGQGTTVTVSS
# VL: DIVLTQSPATLSLSPGERATLSCRASESVEYYGTSLMQWYQQKPGQPPKLLIFGASNVESGVPDRFSGSGSGTDFTLKISRVEAEDVGMYFCQQSRKLPWTFGGGTKVEIKR
# notes: made in NS0 cells; also called variant 21
# B2: T2.5 murine anti-Toll-like Receptor 2 monoclonal antibody (clone T2.5, HyCult Biotechnology, catalogue number 1054) (antibody, mouse IgG1, V domains shown)
# VH: QVQLQQSGPELVNPGASVKLSCKASGFTFTTYGINWVKQGPGQGLEWIGWIYPRDGSTNFNENFKDKAALTVDTSSSTAYMELHSLTSEDSAVYFCARLTGGTFLDYWGQGTTLTVSS
# VL: DIVLTQSPASLAVSLGQRATISCRASESVEYYGTSLMQWYQQKPGQPPKLLIFGASNVESGVPVRFSGSGSGTDFSLNIHPVEEDDIVMYFCQQSRKLPWTFGGGTKLEIK
# notes: Murine IgG1, bought; also called OPN301
# Legend:
# [1] = target: T1, rmTLR2/Fc (recombinant murine TLR-2) (Mus musculus, UniProt Q9QUN7 25-587, limits assumed); assay: SPR, Biacore T100, antibody amine-coupled to CM5 chip, receptor as analyte, bivalent binding model, 25 C
# T1 construct: Recombinant Fc fusion used as SPR analyte, MW of 98 kDa printed; also called murine receptor
# T1 sequence: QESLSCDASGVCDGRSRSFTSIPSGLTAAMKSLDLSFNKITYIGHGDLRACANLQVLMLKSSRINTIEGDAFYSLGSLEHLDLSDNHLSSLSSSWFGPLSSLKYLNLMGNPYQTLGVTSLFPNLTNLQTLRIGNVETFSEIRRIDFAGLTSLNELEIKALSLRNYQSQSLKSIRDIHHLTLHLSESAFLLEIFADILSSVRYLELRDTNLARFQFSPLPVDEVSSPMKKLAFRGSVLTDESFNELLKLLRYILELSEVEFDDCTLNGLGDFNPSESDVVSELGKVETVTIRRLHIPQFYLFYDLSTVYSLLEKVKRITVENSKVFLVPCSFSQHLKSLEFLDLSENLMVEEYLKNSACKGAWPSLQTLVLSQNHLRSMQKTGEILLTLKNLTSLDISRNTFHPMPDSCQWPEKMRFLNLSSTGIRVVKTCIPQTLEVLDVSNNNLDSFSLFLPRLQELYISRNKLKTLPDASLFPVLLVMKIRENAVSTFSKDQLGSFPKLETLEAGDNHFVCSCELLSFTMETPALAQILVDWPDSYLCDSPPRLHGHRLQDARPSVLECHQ
# Method: (§1) Upon insertion of the CM5 chip the system was primed and then normalised with BIAnormalising solution (Biacore Preventative Maintenance Kit 2). All samples were run at 25° C. with a sample rack incubated at 25° C. unless stated. The chip was added to the system with HBS-EP used as the running buffer. The chip surface was primed with two 30 second injections of 50 mM NaOH then left until a stable baseline was obtained in all the Flow cells (Fcs).
# (§2) All antibodies were immobilised using standard amine coupling chemistry. Immobilisation was carried out at a protein concentration of around 1 μg.ml-1 in 10 mM Acetate buffer pH5.5 to a target response level of 150RUs on three CM5 Series S sensor chips. Kinetic data was obtained at a flow rate of 40 μl·min-1 to minimise any potential mass transfer effects. The blank (no receptor) and a single concentration of the analytes (100 nM) was repeated at the start of the kinetic runs in order to check the stability of both the surface and two receptors over the kinetic analyses. Two repeats of the kinetic analysis were carried out and the results compared.
# (§3) Association rates (Kₒₙ) and dissociation rates (Koff) were calculated using a bivalent binding model (BIAcore Evaluation Software version 3.2). The equilibrium dissociation constant (Ko) was calculated as the ratio […].
# [2] = target: T2, rhTLR-2 (recombinant human TLR-2) (human, UniProt O60603 21-588, limits assumed); assay: as above
# T2 construct: Soluble recombinant protein reconstituted from dry powder, used as SPR analyte; also called glycosylated human receptor analyte
# Method: as §1, §2, §3
# [3] = target: T3, monkey Toll-like Receptor 2 expressed on cynomologus monkey whole blood cells (granulocytes, monocytes) (cynomologus monkey, UniProt Q95M53 19-784); assay: FACS, cynomolgus whole blood, gate Granulocytes (R3), OPN305 + FITC mouse anti-hIgG4 [A]
# T3 construct: whole, on cells; also called monkey TLR2
# [4] = target: T3, monkey Toll-like Receptor 2 expressed …; assay: FACS, cynomolgus whole blood, gate Granulocytes (R3), biotinylated OPN301, detection SA-PECy7 [A]
# Method: Cells were then washed and incubated with streptavidin conjugated to PECy7 for a further 30 minutes.
# Binding was measured using FACScalibur from Becton Dickinson. FIG. 14A relates to granulocytes. FIG. 14B relates to monocytes. FIG. 14C relates to lymphocytes. […] Accordingly, it can again be seen that OPN305 is competing for monkey Toll-like Receptor 2 binding.
# T2 sequence (O60603 21-588 limits assumed): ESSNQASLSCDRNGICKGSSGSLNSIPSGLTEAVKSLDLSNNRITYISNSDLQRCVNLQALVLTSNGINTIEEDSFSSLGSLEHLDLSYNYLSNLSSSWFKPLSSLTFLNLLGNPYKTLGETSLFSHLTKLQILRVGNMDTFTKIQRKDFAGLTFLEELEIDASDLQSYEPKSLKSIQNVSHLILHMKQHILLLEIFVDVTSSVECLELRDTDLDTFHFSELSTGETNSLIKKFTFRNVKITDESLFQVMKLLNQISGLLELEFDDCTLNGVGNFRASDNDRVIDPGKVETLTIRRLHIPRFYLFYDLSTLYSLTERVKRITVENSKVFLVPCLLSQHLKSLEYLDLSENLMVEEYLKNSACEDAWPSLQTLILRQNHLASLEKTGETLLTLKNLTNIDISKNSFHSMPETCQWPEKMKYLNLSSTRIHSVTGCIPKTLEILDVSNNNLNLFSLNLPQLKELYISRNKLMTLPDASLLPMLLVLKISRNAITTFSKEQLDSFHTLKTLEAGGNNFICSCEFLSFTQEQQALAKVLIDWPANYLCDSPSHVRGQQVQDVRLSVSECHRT
# T3 sequence (Q95M53 19-784): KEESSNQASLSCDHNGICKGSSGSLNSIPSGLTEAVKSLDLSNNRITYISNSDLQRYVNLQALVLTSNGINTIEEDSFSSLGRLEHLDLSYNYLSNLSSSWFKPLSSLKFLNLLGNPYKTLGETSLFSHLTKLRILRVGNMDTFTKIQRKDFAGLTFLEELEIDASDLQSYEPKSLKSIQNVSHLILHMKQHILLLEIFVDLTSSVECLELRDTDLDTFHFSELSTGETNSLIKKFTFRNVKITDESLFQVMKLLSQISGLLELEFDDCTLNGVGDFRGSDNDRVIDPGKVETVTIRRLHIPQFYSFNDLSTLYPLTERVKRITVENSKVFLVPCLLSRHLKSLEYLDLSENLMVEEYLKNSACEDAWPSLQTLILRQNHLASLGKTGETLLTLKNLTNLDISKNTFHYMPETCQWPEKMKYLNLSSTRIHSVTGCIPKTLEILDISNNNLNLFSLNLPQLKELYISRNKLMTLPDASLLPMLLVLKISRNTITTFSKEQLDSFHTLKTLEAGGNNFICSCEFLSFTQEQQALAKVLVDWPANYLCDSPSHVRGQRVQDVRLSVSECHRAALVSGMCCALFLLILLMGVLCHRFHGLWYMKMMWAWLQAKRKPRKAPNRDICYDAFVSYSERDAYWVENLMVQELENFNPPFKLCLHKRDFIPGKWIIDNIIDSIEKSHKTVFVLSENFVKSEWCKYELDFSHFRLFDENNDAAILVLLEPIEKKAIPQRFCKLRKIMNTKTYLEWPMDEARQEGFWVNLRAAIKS
Kd [1] [nM],koff [1] [s⁻¹],kon [1] [M⁻¹ s⁻¹],Kd [2] [nM],koff [2] [s⁻¹],kon [2] [M⁻¹ s⁻¹],binding result [3],binding result [4],Binder
11.9,8.2e-05,6770,28.9,8.95e-05,3100,binds,,B1
15.6,0.000141,9700,48.2,0.00023,4820,,binds,B2
